The values below come from publication PMC6399465.

The target in this assay is biotinylated IRF3-Flag (UniProt Q14653). Briefly: BLI; Forte-Bio Octet Red; 10 ug/ml biotinylated IRF3-Flag coupled to biosensors, immersed in ICP27-Flag (50, 200, 500 or 800 nM); proteins in PBS. A general note: BLI is a label-free optical method that tracks binding on a fibre tip over time.

pKd: −log10 of the molar value.

UniProt Q14653, sequence (Q14653 whole entry): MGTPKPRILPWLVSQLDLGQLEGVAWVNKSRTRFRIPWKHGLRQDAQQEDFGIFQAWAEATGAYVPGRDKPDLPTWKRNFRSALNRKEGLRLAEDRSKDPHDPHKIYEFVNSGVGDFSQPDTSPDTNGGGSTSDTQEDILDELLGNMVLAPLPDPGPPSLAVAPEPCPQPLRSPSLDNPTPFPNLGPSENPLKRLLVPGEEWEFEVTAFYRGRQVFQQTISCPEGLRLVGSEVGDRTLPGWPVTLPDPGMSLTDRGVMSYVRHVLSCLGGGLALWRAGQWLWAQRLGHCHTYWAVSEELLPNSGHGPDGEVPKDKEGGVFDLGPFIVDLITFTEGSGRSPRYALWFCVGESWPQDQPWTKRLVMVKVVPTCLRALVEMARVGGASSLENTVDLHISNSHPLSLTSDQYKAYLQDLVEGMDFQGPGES

On to “ICP27-Flag (purified from HEK 293F) (from UniProt P28276 1-512) (natural protein)”, for which the pKd was 7.69.

What is called pKd is the Kd on a negative log10 scale, so that one unit is a factor of ten. Low values mean a high Kd, high ones a low Kd.
